Results reported in article PMC7617285, “Dehydrogenase versus oxidase function: the interplay between substrate binding and flavin microenvironment” (ACS catalysis, 2025).

System: T1, COc1cc(CO)ccc1O
T1 construct: SUMO tag cleaved for crystals; non-covalent FAD
Experiment: purified protein
Assay type: biochemical, Novosphingobium sp.
Settings: molecular oxygen as acceptor, 35 °C, 50 mM Tris-HCl pH 9.0, 300 mM NaCl

Row | Substance | Km [µM] | kcat [s⁻¹] | kcat/Km [M⁻¹ s⁻¹]
1 | nsVAO (vanillyl-alcohol oxidase from Novosphingobium sp.) (Novosphingobium sp.; T181D) | 203 ± 22 | 0.28 ± 0.01 | 1400
2 | nsVAO (vanillyl-alcohol oxidase from Novosphingobium sp.) (Novosphingobium sp.) | 207 ± 28 | 0.29 ± 0.01 | 1400
